Data: PMC8996148, “Crystal structure of the ternary complex of Leishmania major pteridine reductase 1 with the cofactor NADP^+/NADPH and the substrate folic acid” (Acta Crystallographica. Section F, Structural Biology …, 2022)

Biological target: the molecule itself
Assay: crystal structure; pre-formed crystals of the native enzyme (sitting drop, 293 K, 12% PEG 4600, 100 mM sodium acetate pH 5.5, 120-160 mM calcium acetate) soaked with 2 mM folate for 15 min; space group P212121, four copies per asymmetric unit; 1.81 Å

B1: Leishmania major pteridine reductase 1 (enzyme)
chain: MTAPTVPVALVTGAAKRLGRSIAEGLHAEGYAVCLHYHRSAAEANALSATLNARRPNSAITVQADLSNVATAPVSGADGSAPVTLFTRCAELVAACYTHWGRCDVLVNNASSFYPTPLLRNDEDGHEPCVGDREAMETATADLFGSNAIAPYFLIKAFAHRVAGTPAKHRGTNYSIINMVDAMTNQPLLGYTIYTMAKGALEGLTRSAALELAPLQIRVNGVGPGLSVLVDDMPPAVWEGHRSKVPLYQRDSSAAEVSDVVIFLCSSKAKYITGTCVKVDGGYSLTRA
notes: Pteridine reductase 1, Leishmania major, UniProtKB Q01782; codon-optimized synthetic DNA in pET-15b; also called LmPTR1; PTR1
stoichiometry N: 4
